Patent publication US20150147274A1 (CANCER RESEARCH TECHNOLOGY, published 2015)

biological target: T1, MET928 (cMET protein derived from construct 25-928) (human, UniProt P08581 25-928); experiment: ELISA, soluble scFv
T1 construct: MET ectodomain, residues 1-24 are the leader; produced in Lec 8 cells; background text says the ectodomain is furin-cleaved into alpha (25-307) and beta chains; biotinylated form used in selections; also called MET928 extracellular domain; Met extracellular domain
T1 sequence (P08581 25-928): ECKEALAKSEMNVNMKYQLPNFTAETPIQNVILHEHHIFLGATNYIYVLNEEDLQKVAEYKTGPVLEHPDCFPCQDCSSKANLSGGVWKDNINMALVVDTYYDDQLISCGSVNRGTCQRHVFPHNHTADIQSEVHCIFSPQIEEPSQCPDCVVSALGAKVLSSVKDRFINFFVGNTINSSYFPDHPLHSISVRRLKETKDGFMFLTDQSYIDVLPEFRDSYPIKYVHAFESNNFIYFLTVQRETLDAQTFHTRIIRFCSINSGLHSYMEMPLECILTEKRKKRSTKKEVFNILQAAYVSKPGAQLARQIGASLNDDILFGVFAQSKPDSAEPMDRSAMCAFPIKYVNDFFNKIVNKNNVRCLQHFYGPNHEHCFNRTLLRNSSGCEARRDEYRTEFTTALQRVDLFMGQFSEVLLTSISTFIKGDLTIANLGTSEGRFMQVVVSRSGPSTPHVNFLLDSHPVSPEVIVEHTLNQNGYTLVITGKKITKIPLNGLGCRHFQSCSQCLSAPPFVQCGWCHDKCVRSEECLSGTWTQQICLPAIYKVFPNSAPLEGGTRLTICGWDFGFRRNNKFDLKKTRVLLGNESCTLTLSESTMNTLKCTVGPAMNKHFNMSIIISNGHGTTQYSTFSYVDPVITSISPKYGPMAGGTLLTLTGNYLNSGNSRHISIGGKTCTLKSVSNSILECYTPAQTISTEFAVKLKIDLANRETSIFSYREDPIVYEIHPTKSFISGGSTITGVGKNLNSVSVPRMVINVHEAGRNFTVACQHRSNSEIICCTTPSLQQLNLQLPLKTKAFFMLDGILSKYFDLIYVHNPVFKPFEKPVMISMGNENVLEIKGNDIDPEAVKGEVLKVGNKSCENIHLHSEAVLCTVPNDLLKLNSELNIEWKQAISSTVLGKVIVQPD

Row | binding result | Binder
1 | binds | 109_G10 (scFv, not shown: 6xHis/tri-FLAG tags) scFv: QMQLVQSGAEVKKPGAPVKVSCKVSGYTFTDYYMHWVQQAPGKGLEWMGLVDPEDGETIYAEKFQGRVTITADTSTDTAYMELSSLRSEDTAVYYCATDATTPYWFPRVWGQGTLVTVSSLEGGGGSGGGGSGGGASDIQMTQSPSSLSASVGDRVTITCQASQDISNYLNWYQQKPGRAPKVLIYDASNLETGVPSRFSGSGSGTEFTLTISNLRPDDFATYYCQQGDSFPLTFGGGTKVEIK
2 | binds | 110_B7 (scFv, not shown: 6xHis/tri-FLAG tags) scFv: QMQLVQSGAEVKKPGAPVKVSCKVSGYTFTDYYMHWVQQAPGKGLEWMGLVDPEDGETIYAEKFQGRVTITADTSTDTAYMELSSLRSEDTAVYYCATDGLWMYYGMDVWGQGTLVTVSSLEGGGGSGGGGSGGGASDIQMTQSPSSLSASVGDRVTITCQASQDISNYLNWYQQKPGRAPKVLIYDASNLETGVPSRFSGSGSGTEFTLTISNLRPDDFATYYCQQGDSFPLTFGGGTKVEIK
3 | binds | 110_B5 (scFv, not shown: 6xHis/tri-FLAG tags) scFv: QMQLVQSGAEVKKPGAPVKVSCKVSGYTFTDYYMHWVQQAPGKGLEWMGLVDPEDGETIYAEKFQGRVTITADTSTDTAYMELSSLRSEDTAVYYCATDATTPYWGMMSWGQGTLVTVSSLEGGGGSGGGGSGGGASDIQMTQSPSSLSASVGDRVTITCQASQDISNYLNWYQQKPGRAPKVLIYDASNLETGVPSRFSGSGSGTEFTLTISNLRPDDFATYYCQQGDSFPLTFGGGTKVEIK
4 | binds | 109_H3 (scFv, not shown: 6xHis/tri-FLAG tags) scFv: QMQLVQSGAEVKKPGAPVKVSCKVSGYTFTDYYMHWVQQAPGKGLEWMGLVDPEDGETIYAEKFQGRVTITADTSTDTAYMELSSLRSEDTAVYYCATDATTPYWGMQQWGQGTLVTVSSLEGGGGSGGGGSGGGASDIQMTQSPSSLSASVGDRVTITCQASQDISNYLNWYQQKPGRAPKVLIYDASNLETGVPSRFSGSGSGTEFTLTISNLRPDDFATYYCQQGDSFPLTFGGGTKVEIK
5 | binds | 109_H1 (scFv, not shown: 6xHis/tri-FLAG tags) scFv: QMQLVQSGAEVKKPGAPVKVSCKVSGYTFTDYYMHWVQQAPGKGLEWMGLVDPEDGETIYAEKFQGRVTITADTSTDTAYMELSSLRSEDTAVYYCATDATTPYWGVQKWGQGTLVTVSSLEGGGGSGGGGSGGGASDIQMTQSPSSLSASVGDRVTITCQASQDISNYLNWYQQKPGRAPKVLIYDASNLETGVPSRFSGSGSGTEFTLTISNLRPDDFATYYCQQGDSFPLTFGGGTKVEIK
6 | binds | 110_A9 (scFv, not shown: 6xHis/tri-FLAG tags) scFv: QMQLVQSGAEVKKPGAPVKVSCKVSGYTFTDYYMHWVQQAPGKGLEWMGLVDPEDGETIYAEKFQGRVTITADTSTDTAYMELSSLRSEDTAVYYCATDATTPYWGMAGWGQGTLVTVSSLEGGGGSGGGGSGGGASDIQMTQSPSSLSASVGDRVTITCQASQDISNYLNWYQQKPGRAPKVLIYDASNLETGVPSRFSGSGSGTEFTLTISNLRPDDFATYYCQQGDSFPLTFGGGTKVEIK
7 | binds | 110_B3 (scFv, not shown: 6xHis/tri-FLAG tags) scFv: QMQLVQSGAEVKKPGAPVKVSCKVSGYTFTDYYMHWVQQAPGKGLEWMGLVDPEDGETIYAEKFQGRVTITADTSTDTAYMELSSLRSEDTAVYYCATDMELNYYGMDVWGQGTLVTVSSLEGGGGSGGGGSGGGASDIQMTQSPSSLSASVGDRVTITCQASQDISNYLNWYQQKPGRAPKVLIYDASNLETGVPSRFSGSGSGTEFTLTISNLRPDDFATYYCQQGDSFPLTFGGGTKVEIK
8 | binds | 109_H5 (scFv, not shown: 6xHis/tri-FLAG tags) scFv: QMQLVQSGAEVKKPGAPVKVSCKVSGYTFTDYYMHWVQQAPGKGLEWMGLVDPEDGETIYAEKFQGRVTITADTSTDTAYMELSSLRSEDTAVYYCATDATTPYWGAQEWGQGTLVTVSSLEGGGGSGGGGSGGGASDIQMTQSPSSLSASVGDRVTITCQASQDISNYLNWYQQKPGRAPKVLIYDASNLETGVPSRFSGSGSGTEFTLTISNLRPDDFATYYCQQGDSFPLTFGGGTKVEIK
9 | binds | 109_H11 (scFv, not shown: 6xHis/tri-FLAG tags) scFv: QMQLVQSGAEVKKPGAPVKVSCKVSGYTFTDYYMHWVQQAPGKGLEWMGLVDPEDGETIYAEKFQGRVTITADTSTDTAYMELSSLRSEDTAVYYCATDATTPYWGMAQWGQGTLVTVSSLEGGGGSGGGGSGGGASDIQMTQSPSSLSASVGDRVTITCQASQDISNYLNWYQQKPGRAPKVLIYDASNLETGVPSRFSGSGSGTEFTLTISNLRPDDFATYYCQQGDSFPLTFGGGTKVEIK
10 | binds | 109_G11 (scFv, not shown: 6xHis/tri-FLAG tags) scFv: QMQLVQSGAEVKKPGAPVKVSCKVSGYTFTDYYMHWVQQAPGKGLEWMGLVDPEDGETIYAEKFQGRVTITADTSTDTAYMELSSLRSEDTAVYYCATDATTPYWWTANWGQGTLVTVSSLEGGGGSGGGGSGGGASDIQMTQSPSSLSASVGDRVTITCQASQDISNYLNWYQQKPGRAPKVLIYDASNLETGVPSRFSGSGSGTEFTLTISNLRPDDFATYYCQQGDSFPLTFGGGTKVEIK
11 | binds | 110_A2 (scFv, not shown: 6xHis/tri-FLAG tags) scFv: QMQLVQSGAEVKKPGAPVKVSCKVSGYTFTDYYMHWVQQAPGKGLEWMGLVDPEDGETIYAEKFQGRVTITADTSTDTAYMELSSLRSEDTAVYYCATDATTPYWGMSTWGQGTLVTVSSLEGGGGSGGGGSGGGASDIQMTQSPSSLSASVGDRVTITCQASQDISNYLNWYQQKPGRAPKVLIYDASNLETGVPSRFSGSGSGTEFTLTISNLRPDDFATYYCQQGDSFPLTFGGGTKVEIK
12 | binds | 109_G12 (scFv, not shown: 6xHis/tri-FLAG tags) scFv: QMQLVQSGAEVKKPGAPVKVSCKVSGYTFTDYYMHWVQQAPGKGLEWMGLVDPEDGETIYAEKFQGRVTITADTSTDTAYMELSSLRSEDTAVYYCATDATTPYWGMAAWGQGTLVTVSSLEGGGGSGGGGSGGGASDIQMTQSPSSLSASVGDRVTITCQASQDISNYLNWYQQKPGRAPKVLIYDASNLETGVPSRFSGSGSGTEFTLTISNLRPDDFATYYCQQGDSFPLTFGGGTKVEIK
13 | binds | 109_H7 (scFv, not shown: 6xHis/tri-FLAG tags) scFv: QMQLVQSGAEVKKPGAPVKVSCKVSGYTFTDYYMHWVQQAPGKGLEWMGLVDPEDGETIYAEKFQGRVTITADTSTDTAYMELSSLRSEDTAVYYCATDATTPYWFPRWWGQGTLVTVSSLEGGGGSGGGGSGGGASDIQMTQSPSSLSASVGDRVTITCQASQDISNYLNWYQQKPGRAPKVLIYDASNLETGVPSRFSGSGSGTEFTLTISNLRPDDFATYYCQQGDSFPLTFGGGTKVEIK
14 | binds | 110_A3 (scFv, not shown: 6xHis/tri-FLAG tags) scFv: QMQLVQSGAEVKKPGAPVKVSCKVSGYTFTDYYMHWVQQAPGKGLEWMGLVDPEDGETIYAEKFQGRVTITADTSTDTAYMELSSLRSEDTAVYYCATDATTPYWGVQVWGQGTLVTVSSLEGGGGSGGGGSGGGASDIQMTQSPSSLSASVGDRVTITCQASQDISNYLNWYQQKPGRAPKVLIYDASNLETGVPSRFSGSGSGTEFTLTISNLRPDDFATYYCQQGDSFPLTFGGGTKVEIK
15 | binds | 110_A8 (scFv, not shown: 6xHis/tri-FLAG tags) scFv: QMQLVQSGAEVKKPGAPVKVSCKVSGYTFTDYYMHWVQQAPGKGLEWMGLVDPEDGETIYAEKFQGRVTITADTSTDTAYMELSSLRSEDTAVYYCATDATTPYWCMAIWGQGTLVTVSSLEGGGGSGGGGSGGGASDIQMTQSPSSLSASVGDRVTITCQASQDISNYLNWYQQKPGRAPKVLIYDASNLETGVPSRFSGSGSGTEFTLTISNLRPDDFATYYCQQGDSFPLTFGGGTKVEIK
16 | binds | 109_H8 (scFv, not shown: 6xHis/tri-FLAG tags) scFv: QMQLVQSGAEVKKPGAPVKVSCKVSGYTFTDYYMHWVQQAPGKGLEWMGLVDPEDGETIYAEKFQGRVTITADTSTDTAYMELSSLRSEDTAVYYCATDATTPYWFPRSWGQGTLVTVSSLEGGGGSGGGGSGGGASDIQMTQSPSSLSASVGDRVTITCQASQDISNYLNWYQQKPGRAPKVLIYDASNLETGVPSRFSGSGSGTEFTLTISNLRPDDFATYYCQQGDSFPLTFGGGTKVEIK
17 | binds | 109_H6 (scFv, not shown: 6xHis/tri-FLAG tags) scFv: QMQLVQSGAEVKKPGAPVKVSCKVSGYTFTDYYMHWVQQAPGKGLEWMGLVDPEDGETIYAEKFQGRVTITADTSTDTAYMELSSLRSEDTAVYYCATDATTPYWFPRTWGQGTLVTVSSLEGGGGSGGGGSGGGASDIQMTQSPSSLSASVGDRVTITCQASQDISNYLNWYQQKPGRAPKVLIYDASNLETGVPSRFSGSGSGTEFTLTISNLRPDDFATYYCQQGDSFPLTFGGGTKVEIK
18 | binds | 110_B6 (scFv, not shown: 6xHis/tri-FLAG tags) scFv: QMQLVQSGAEVKKPGAPVKVSCKVSGYTFTDYYMHWVQQAPGKGLEWMGLVDPEDGETIYAEKFQGRVTITADTSTDTAYMELSSLRSEDTAVYYCATDTDLKYYGMDVWGQGTLVTVSSLEGGGGSGGGGSGGGASDIQMTQSPSSLSASVGDRVTITCQASQDISNYLNWYQQKPGRAPKVLIYDASNLETGVPSRFSGSGSGTEFTLTISNLRPDDFATYYCQQGDSFPLTFGGGTKVEIK
19 | binds | 109_H9 (scFv, not shown: 6xHis/tri-FLAG tags) scFv: QMQLVQSGAEVKKPGAPVKVSCKVSGYTFTDYYMHWVQQAPGKGLEWMGLVDPEDGETIYAEKFQGRVTITADTSTDTAYMELSSLRSEDTAVYYCATDATTPYWGMTKWGQGTLVTVSSLEGGGGSGGGGSGGGASDIQMTQSPSSLSASVGDRVTITCQASQDISNYLNWYQQKPGRAPKVLIYDASNLETGVPSRFSGSGSGTEFTLTISNLRPDDFATYYCQQGDSFPLTFGGGTKVEIK
20 | binds | 110_A5 (scFv, not shown: 6xHis/tri-FLAG tags) scFv: QMQLVQSGAEVKKPGAPVKVSCKVSGYTFTDYYMHWVQQAPGKGLEWMGLVDPEDGETIYAEKFQGRVTITADTSTDTAYMELSSLRSEDTAVYYCATDATTPYWYPFVWGQGTLVTVSSLEGGGGSGGGGSGGGASDIQMTQSPSSLSASVGDRVTITCQASQDISNYLNWYQQKPGRAPKVLIYDASNLETGVPSRFSGSGSGTEFTLTISNLRPDDFATYYCQQGDSFPLTFGGGTKVEIK
